Laboratory results reported in the domain aggregation screens of Martell et al. (2025).

Assay: soluble fraction after stress (log2 fold change); higher = more stays soluble; pooled small domains, quantitative proteomics
Conditions: stress: 75 degC
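Note: 20 min heating vs room temperature control held 20 min.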

Sequence	soluble fraction (log2)
HMLTKSELVFDTLKKRIIDGELEPGTELVISRISEEFNVSTIPVREAIKTLASEGLVEMEPHKSAKVAE	-0.0052
HMLTKSVLGNQIKVLRLEKGLSQEEFGAPVDLSRSAVSQIESGQMYPSLESIGKIVKYYSTSWDNLVG	-0.846
HMLTLDEKRRLQIMRVQVALTSLGLYNGRVDGVLNAETKLGLEFFQDLKGLPKSGTMTTPTLNALGVPA	-2.43
HMLTLSGPEHAVVRALWPEPELDFDVLIRKTGLPSAQLMTLAMQLEMKKIIRRLPGRRLALMDDIRR	-3.98
HMLTRSTVNVETGTAAIGLGKLYGVYDMSRKGLKYSFSVDSDAMTKVMEMLLPLGIKSLTVEPPS	-1.55
HMLTTADLMMVHANSNKAIDYIVTDDNTKLTVDEPVTAKWITTADSIYRAVAYYNKVGDGKAQIVSVGN	-0.0103
HMLTYPEHVRLRMIELRKTRSLSQSEFGTYLGLSYQTISSLELGRHEWSLAHIQTALLRFELPPNYF	-4.27
HMLVATFGPTTGWEGREIIWDVDRFILVGHGAVPAAGVLDYDRRGQLIWAQPELRAWVVEVDRWETG	-2.22
HMLVMTDNVIKAINDLLNYEAAAGIKKKQRYTAYQIYKELSEQGVYHGSRRRMEEVVSKLRVERNQI	-2.79
HMLVPWKSANLFKLVEPNFRLAERKIPMLPSADREKLQEIMSDMKDAIVDNDKMALMKLDEELTDFLFDFV	-1.49
HMLVSPLDEIPGIGRNRKKTLLNHFGSAKTIEGASLEDLKKVDGISELIAKKIYNYFHLNKNF	-0.85
HMLWTDTKYVTVPDFVGKEPKEIESSYLYNIEYHGEGTKVISQQPAAFSRTIEGGTVRLYLG	-0.0387
HMLYGRRFQVEGLNLERYLRAAADSGIPLKGARRFGRTLTGVAAEEHMAALEALARQGGWLFTPLEAVGAN	-0.948
HMLYKNIAKKLRFRINSDEFAIGDVLPTERQLMEEYQASRVSIRKAIDELVAIDLIEKKQGSGTYIKQKEV	-1.89
HMMESLGIRLKRLRKDKGLTQVELGKLSGVTGVTIGYWEKDLNEPGSKALSKLAQALGTTESYLLYGVS	-1.21
HMMNNKEIGTRIAVLRKGMGDSQAKLAERLDVSPQAVSKWETGQSLPDIGNLLKLSWLFRTSINHILEGS	-2.18
HMNADAPWSPFSPGFTGPMNRPVIGLVTKADLANPQRISLVESWLVQAGAQKVFVTSALENTGVDEMFIFL	-0.152
HMNADLDIQNVNGNTPLWEAVMRYRGDGFFIEQLLKNGANPDIKNNYGVSPKSLARTIANYDVRRFFN	-0.281
HMNADSLIGENIRISERVSNMDQTGMAVVHGQEWTVRTRNDNEIIEPGEEAKILAISGVKLIVEK	-0.136
HMNAESLIGDRAVVTVAIERNKRGRVDVTGQDWAATTRDGEEIKVGQEVLVVGISGVALIVEER	-1.1
HMNAIYKFVLGMIGKRSGVVTTLPSKKQVEFQANMLAEKFMQNGIDPNALKSPEQVKNVLANIDQ	-1.13
HMNALVAKYKQGVTEEQQQGQGIIIIKRVVVRDQEAWVYEKKIFDWGGVSYFRDKQRITASTFNQETAL	-2.79
HMNAQLTTQEAADLLNVSRPHLVKLLEDGELPFLRTGKHRRVRLADLLQFKNAREQASVQAMDELSRQAQ	-0.103
HMNARSTSYSDFIARVDKDEVASVRLDGETVTYQAADGTTYTTVKPESDPIAERLIAKGIEVNVVRQ	-0.348
HMNASITVPDVRNLTVKQASEQLLASGFTPIPYAATKDGVGNDIVYAQDPPPSVLARSGDQITITYNPA	0.0994

Sequence	soluble fraction (log2)
HMNASTVTLENFEGAKYDDVYGKYDYQFSVTYEQTDKYESGVIISQKPEAGTKIIKGSQVSLVVAT	0.115
HMNASVIADLFRQTGASVMIHGHTHRPDIHALEANGDAAFRAVLGAWHTEGSMIRVTQDDVTLIAFP	0.0461
HMNATLEQLTQREREIAVLMAEGLTNAQIGSRLNVSMASVKAHLSHIFTKLGVDNRVSAAMMVL	-0.868
HMNATPDMERYWASSAAEGRALEPLYAVSRGDGGEPLWWSPSRAQAERMAREEGGPLTVDRIDPP	0.113
HMNAVYAEERRAYILAALEKRGTVHSYELAEQMGVSRETIRRDIMELSNRGLLVKTHGGAIST	-1.45
HMNAYEVLIPNIYIGQRVDQTLASLFPQFSRSRLQNWLARGNLLIDGEIIKPKTKVLGGEQIIILDT	-1.72
HMNDAEEKAEAIEGVKNFMANMEKTDIDFKSKESVLLEQVEEIRKNYPVAQWPVIVKQLYNNIGRL	-0.0997
HMNDIDKFVAALVDQDTMAGTNRAFDENDIQTMKNMSSIEDVKQYAVANGLSSGKVNNALISAGL	0.234
HMNDIQIILQEAVARLPKKQQLVFNMKYFDHLKYQEISEILGTSVGGLKASYFQAVKKIENYIINKH	-2.27
HMNDRLFQILYLLLEKGTMTAPELSRALEVSVRTIYRDIDALSLAGVPVYATQGKNGGVSLLPNY	-2.46
HMNDTLQEYFEALERLKSNNPINVPKNTKINNDSVALEAGRKRGSIKKSREIFAELIEAINNAS	-0.303
HMNDVEAIDDALKDLHKVSPDLAALVEMKFFGGMTEPEISEILGVSERTVRREWEKARAALLVLLE	-1.63
HMNDVHELPYSSFIEMVERGHVISVTVKHINIEFESTKNENYRTIAPQAMTPPYLELLLKNKDSVKVTFLP	-1.98
HMNDVLVGAIPESASGSRLDKVMPSVFPPYSRSQLQVWLKQGRILMGNGIPSPRLIVSGGEVLSLVVPELP	-1.02
HMNEDFSEIIAAVKKFAVDNLSLSTLSDEELEEQIKTITDNMIGNRYVSIKNRVDIAQQVFSSIR	-0.291
HMNEMEFAQRLRQFRKAKNLTQQELADRLGVSNKSVSRWESGSYPDVGTLVALARALGVTVDELLDPKA	-0.00291
HMNEMEWVAKLIDQLPERERMILQLREIEQYEFDQIASLMEIPEGTVRVYLSRIRKKIKKQFIEIQSH	0.0404
HMNENFPYRLKEMVVVQSRTWPGINKPGGVGQVMKINPEAGTVNVKYVLGGSEKNIELKYVTSNDLNSK	-0.489
HMNENYNLSKREKEVLDLLVNGKSYKVIATELAISYETVHSHIKKIYHKLHVSSIGEAVSKTIKQKIL	-3.11
HMNEPITIALREAEEAANKILNEGVHSVELSPQNGYVRRLQHELIARYGLTSASRGSDPSRRVSVGAN	-0.295
HMNEQKVSSLLTPRQLAFIDEYLIDFNGAQAAIRAGYSHKTAGPQAARLLVNVNISRMIAERIEARNK	-2.5
HMNEQVAVVSGSQVNVRSGPGTTSAVVGQVSKGDNLPVLNQSGDWYQIKLPGGNAGWVAGWLVSLRPTT	0.0105
HMNESPVLAVLTPTERKVASLVAEGLTNQAIAARMILAEGTVKNHVSTLLHKLQAPDRTALALTLYKAFQ	-1.3
HMNETRVDQAADLLLALLEKEPKSAAEILDEFEQAGFSKSGLYRAKDALGVVSIRKEGRWVWSLPHSLD	0.438
HMNEYIVSAEQEGMRLDVFLTEQMEGSRSYIQSLIKGGHVTVGDKVGKANLRLTPDTVIHVEIPEPE	0.0133
